For 1 molecule, Kd results are on record in publication PMC5913134, “The IL-33-PIN1-IRAK-M axis is critical for type 2 immunity in IL-33-induced allergic airway inflammation” (Nature Communications, 2018).

This experiment has as its target T1, 15N-labeled PIN1 WW domain (PIN1 residues 1-50) (UniProt Q13526 1-50).
T1 construct: PIN1 residues 1-50 (WW domain); The methods describe a pET28 His6-TEV construct for PIN1; also called 15N-PIN1-WW; source: expressed and purified, 15N-labeled
Description: NMR titration; 1H-15N HSQC of 15N-PIN1-WW at constant concentration, peptide serially diluted (reverse titration), 25 °C, 600 MHz; fit to a simple bimolecular model; apparent. Conditions: both partners purified.

Where no end group is shown, it is not given here. [ ]: non-standard residue; d: D form. pS = N[C@@H](COP(=O)(O)O)C(=O)O

T1 sequence (Q13526 1-50): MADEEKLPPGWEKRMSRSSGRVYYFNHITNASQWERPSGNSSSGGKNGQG

B1: IRAK-M-pS110 peptide (IRAK-M residues 103-124 with Ser110 phosphorylated) (peptide)
peptide: TNYGAVL[pS]PSEKSYQEGGFPNI
notes: IRAK-M (IRAK3) residues 103-124; also called IRAK-M phosphopeptide; pIRAK-M-pS110; source: synthetic peptide (Tufts University Core Facility)
Turning to B1, the Kd came out at 60.7 µM.
